What was measured:
[1] = molecular target: T1, recombinant monomeric human clusterin (human, UniProt P10909 23-449); assay: SPR (BIAcore 3000), recombinant monomeric human clusterin amine-coupled to a CM3 chip, Fab injected
T1 construct: Tags and processing into alpha and beta chains are not described; also called recombinant human clusterin; immobilized clusterin
Protocol: (§1) HBST (10 mM Hepes pH 7.4, 135 mM NaCl, 3.4 mM EDTA, 0.005% Tween 20) was used as running buffer for all BIAcore experiments. Recombinant monomeric clusterin was immobilized on a CM3 chip with normal amine coupling method at a flow of 5 μl/min. Surface was activated with 35 μl of a mixture of 50 mM NHS/0.2M EDC. Clusterin in 10 mM Na-acetate pH 4.5 was injected until a desired amount was captured (below 60RU). Unreacted esters were deactivated with 35 μl of 1M ethanolamine hydrochloride-NaOH pH8.5. A control surface was prepared by injecting NHS/EDC and ethanolamine in the same manner.
(§2) Kinetics analysis was conducted at a flow of 50 μl/min. Full length antibodies (mouse or humanized) or Fab were diluted in HBST. Concentration range was from 1.953-31.25 nM for the full length antibodies and 15.625-250 nM for the Fab. Each concentration was injected over the clusterin and a control surface for 5 min followed with a 5 min dissociation wash. The clusterin surface was regenerated between each antibody injection with 50 μl of 20 mM HCl.

[2] = molecular target: T1, recombinant monomeric human clusterin; assay: SPR (BIAcore 3000), recombinant monomeric human clusterin amine-coupled to a CM3 chip, full length antibody injected
Protocol: as §1, §2

[3] = molecular target: T1, recombinant monomeric human clusterin; assay: SPR (BIAcore 3000), recombinant monomeric human clusterin amine-coupled to a CM3 chip, Fab injected; remark: listed apart in the source
Protocol: (§3) The purpose of these investigations is to determine the kinetics parameters of anti-clusterin antibodies. In particular, to determine whether the humanization of the 16B5 and 21B12 anti-clusterin monoclonal antibody affects the kinetics parameters of its binding to human clusterin. To this end, a kinetic analysis method was developed using the BIAcore 3000. Human clusterin was immobilized on a sensor chip. Full length antibodies or Fab fragments were injected and allowed to interact with the immobilized clusterin. This example described the exemplary antibody 16B5 but the 21B12 exemplary antibody was prepared and tested in a similar manner.
as §1, §2

[4] = molecular target: T1, recombinant monomeric human clusterin; assay: SPR (BIAcore 3000), recombinant monomeric human clusterin amine-coupled to a CM3 chip, full length antibody injected; remark: listed apart in the source
Protocol: as §3, §1, §2

T1 sequence (P10909 23-449 limits assumed): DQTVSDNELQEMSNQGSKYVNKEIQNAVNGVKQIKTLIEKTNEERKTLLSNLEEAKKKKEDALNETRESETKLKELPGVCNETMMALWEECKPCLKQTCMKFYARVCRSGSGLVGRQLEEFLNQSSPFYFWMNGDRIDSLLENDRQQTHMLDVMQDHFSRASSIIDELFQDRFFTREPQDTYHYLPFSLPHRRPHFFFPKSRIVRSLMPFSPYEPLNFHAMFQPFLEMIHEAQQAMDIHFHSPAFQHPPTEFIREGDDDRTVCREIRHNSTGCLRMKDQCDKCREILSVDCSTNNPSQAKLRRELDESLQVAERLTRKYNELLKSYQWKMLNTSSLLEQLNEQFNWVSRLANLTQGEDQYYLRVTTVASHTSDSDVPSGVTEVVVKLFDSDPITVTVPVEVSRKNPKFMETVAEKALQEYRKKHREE

B1: mouse 16B5 Fab (Fab, V domains shown)
VH: EVQLQQSGAELVKPGASVRLSCTTSGFNIKDIYMHWVKQRPEQGLEWIGRIDPAYGNTKYDPKFQGKATITADTSSNTAYLQLSSLTSEDTAVYYCARRYDTAMDYWGQGTSVTVSS
VL: DIVMSQSPSSLAVSAGEKVTMSCKSSQSLLNSRTRKNYLAWYQQKPGQSPKLLIYWASTRESGVPDRFTGSGSGTDFTLTISSVQAEDLAVYYCKQSYNLWTFGGGTKLEFK
notes: also called Fab mouse antibody
[1]
  Kd: 41.6 nM
  koff: 0.003 s⁻¹
  kon: 74100 M⁻¹ s⁻¹

B2: humanized 16B5 anti-clusterin antibody (full length, human IgG2) (antibody, V domains shown)
VH: QVQLVQSGAEVKKPGATVKISCKVSGFNIKDIYMHWVQQAPGKGLEWMGRIDPAYGNTKYDPKFQGRVTITADTSTDTAYMELSSLRSEDTAVYYCARRYDTAMDYWGQGTLVTVSS
VL: DIVMTQSPDSLAVSLGERATINCKSSQSLLNSRTRKNYLAWYQQKPGQPPKLLIYWASTRESGVPDRFSGSGSGTDFTLTISSLQAEDVAVYYCKQSYNLWTFGQGTKLEIKV
notes: also called h16B5; H16B5
[2]
  Kd: 4.49 nM
  koff: 0.0015 s⁻¹
  kon: 345000 M⁻¹ s⁻¹

B3: 21B12 Fab (Fab, V domains shown)
VH: QIQLVQSGPELKKPGETVKISCKASGYTFTNYGMHWVKQAPGKGLKWMGWINTYTGEPTYADDFKGRFAFSLETSASTAYLQINNLKNEDTATYFCARDGFLYFFDYWGQGTTLTVSS
VL: DIVMSQSPSSLAVSVGEKVTMSCKSSQSLLYSSNQKNYLAWYQQRPGQSPKLLIYWASTRESGVPDRFTGSGSGTDFTLTISSVKAEDLAVYYCQQYYIYPRTFGGGTKLEIK
notes: also called mouse 21B12 Fab; Fab fragment of the murine 21B12 anti-clusterin antibody
[3]
  Kd: 25.3 nM
  koff: 0.00352 s⁻¹
  kon: 215000 M⁻¹ s⁻¹

B4: mouse 21B12 anti-clusterin monoclonal antibody (full length) (antibody, V domains shown)
VH: B3 VH
VL: B3 VL
notes: also called murine 21B12; parent mouse 21B12
[4]
  Kd: 5.09 nM
  koff: 0.0015 s⁻¹
  kon: 362000 M⁻¹ s⁻¹

B5: humanized 21B12 anti-clusterin antibody (full length, human IgG2) (antibody, V domains shown)
VH: QVQLVQSGSELKKPGASVKVSCKASGYTFTNYGMHWVRQAPGQGLEWMGWINTYTGEPTYADDFKGRFVFSLDTSVSTAYLQISSLKAEDTAVYYCARDGFLYFFDYWGQGTLVTVSS
VL: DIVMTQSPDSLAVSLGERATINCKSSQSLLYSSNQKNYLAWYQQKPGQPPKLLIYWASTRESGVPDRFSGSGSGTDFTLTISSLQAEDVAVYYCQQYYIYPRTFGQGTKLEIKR
notes: also called HH21B12
[4]
  Kd: 2.23 nM
  koff: 0.00083 s⁻¹
  kon: 374000 M⁻¹ s⁻¹

B6: mouse 16B5 anti-clusterin monoclonal antibody (full length) (antibody, V domains shown)
VH: B1 VH
VL: B1 VL
notes: Full-length mouse IgG purified from the original hybridoma; also called murine 16B5; hybridoma 16B5
[2]
  Kd: 6.64 nM
  koff: 0.0017 s⁻¹
  kon: 329000 M⁻¹ s⁻¹

B7: humanized 16B5 Fab (Fab, V domains shown)
VH: B2 VH
VL: DIVMTQSPDSLAVSLGERATINCKSSQSLLNSRTRKNYLAWYQQKPGQPPKLLIYWASTRESGVPDRFSGSGSGTDFTLTISSLQAEDVAVYYCKQSYNLWTFGQGTKLEIK
notes: The preparation still held some F(ab')2; also called HH16B5 Fab; HH 16B5 Fab
[1]
  Kd: 17.2 nM
  koff: 0.0027 s⁻¹
  kon: 159000 M⁻¹ s⁻¹

From patent US20140302020A1 (ALETHIA BIOTHERAPEUTICS, published 2014)
